Data taken from patent US20240307509A1, “PLACENTAL ALKALINE PHOSPHATASE FOR STARTING EARLY TREATMENT OF CANCER PATIENTS EXHIBITING NO DETECTABLE LOSS OF BODY AND MUSCLE WEIGHT AS YET TO PREVENT OR REDUCE THE LOSS OF MUSCLE PROTEINS” (MNPHARM SBC, priority 2021, published 2024).
Where “and” joins values, the source holds several entries; their conditions need not be identical. Identical values can stand only once.

Tests used:
[1] = tested on: T47D human estrogen receptor positive breast carcinoma; experiment: Tumor growth and survival of Cyp treated mice bearing T47D breast carcinoma; type: in vivo
Description: T47D estrogen receptor positive human breast cancer cells were from American Tissue Culture Collection (10801 University Boulevard, Manassas, Virginia, 20110-2209, United States).
First generation hybrid BDF1 (C57BL female x DBA/2 male) 6 weeks old, weighing 22-23 grams, specified pathogen free (SPF) hygienic category colonies were used. The animals were kept in macrolon cage at 22-24 0 C° (45-55% humidity), with a lightning regimen of 12/12 h light/dark. The animals had free access to tap water and were fed with a sterilized standard diet (Charles River VRF1, autoclavable, Germany) ad libitum.
T47D mammary tumor pieces (maintained in mouse tail, containing about 1.5×10^6 tumor cells) were implanted subcutaneously into the intrascapular region to develop the tumors. After 15 days, when the tumor-bearing mice were first treated, the sizes of the tumors were in the 0.27-0.34 cm^3 range. PLAP and Cyp were dissolved in 0.9% sodium chloride and applied subcutaneously (PLAP) or intraperitoneally (Cyp) in 50 μl volume. In the first group (n=7), animals received no treatment. In the second group (n=7), mice were administered 120-mg/kg of Cyp on day 15 followed by eleven consecutive treatments on every second day (days 17, 19, 21, 23, 25, 27, 29, 31, 35, 37, and 39) with the same dose. In the third group (n=7), treatment with Cyp (on the same days as in group 2) was accompanied by administration of 7.5 mg per kg of PLAP on days 15, 20, 25, 30, 35, and 40. Tumor volume was measured on days 15, 18, 21, 24, 27, 31, 35, 40, and 46, and body weight was measured on day 46. Then the animals were kept without additional treatment to determine survival rates.

[2] = tested on: T47D human breast cancer tumor; experiment: Skeletal muscle proteins in the Cyp treated human T47D tumor model; type: in vivo, mice; details: gastrocnemius, day 28; PLAP 7.5 mg per kg subcutaneously days 14, 17, 20, 23, 26; Cyp intraperitoneally days 15-27 every second day
Description: PLAP and Cyp were dissolved in 0.9% sodium chloride and applied subcutaneously (PLAP) or intraperitoneally (Cyp) in […] volume. […] In the fourth and fifth groups mice also received Cyp on days 15, 17, 19, 21, 23, 25, and 27. On day 28, body weights were measured first followed by determining the tumor volumes. After the mice were put to death under anesthesia, the gastrocnemius muscles were excised to determine total proteins by using a Sigma kit.

L6 myoblasts [3] = experiment: Proliferation of L6 myoblasts with or without IGF-1 (MTT assay); type: cell-based; details: serum-free medium, 72 hours; IGF-1 50 nM, rPLAP 150 nM, PLAP 150 nM
Description: L6 myoblasts were grown in 96-well plates in 10% FBS containing DMEM up to 30% confluency. Then the medium was changed to serum-free medium, and after 2 hours, cells were treated with IGF-1 (50 nM), or rPLAP (150 nM), or PLAP (150 nM) in the absence or presence of IGF-1 for 72 hours, followed by the MTT assay (absorbance; A540) as described by others assay [Carmichael, J, De Graff, W.G., Gazdar, A.F., Minna, J.D. and Mitchell, J.B. Evaluation of tetrazolium-based semiautomated colorimetric assay: Assessment of chemosensitivity testing. Cancer Res. 47, 936-942, 1987].

L6 myoblasts [4] = experiment: Proliferation of L6 myoblasts in the presence of myostatin (MTT assay); type: cell-based; details: 96 hours
Description: In this experiment, L6 myoblasts were seeded in 10% serum containing Dulbecco's modified Eagles (DMEM) medium in 96-well plates (n=8 for each treatment). After 24 hours at 30% confluence, the medium was changed to 2% serum-containing medium (0 time) and then treated with 0.25 μg/ml or 1 ug/ml myostatin (MSTN-from the R&D Systems-catalog no. 788-GB-010) in the absence or presence of 25 nM, 100 nM, or 200 nM PLAP for 96 hours. The relative number of viable cells (A540) was determined by the MTT assay [Carmichael, J, De Graff, W.G., Gazdar, A.F., Minna, J.D. and Mitchell, J.B. Evaluation of tetrazolium-based semiautomated colorimetric assay: Assessment of chemosensitivity testing. Cancer Res. 47, 936-942, 1987]. The value measured at 0 time is subtracted from the 96-hour values.

[5] = tested on: PC-3 human prostate adenocarcinoma tumor; experiment: Subcutaneously administered PLAP in the cachectic PC-3 mouse tumor model; type: in vivo, mice; details: day 28
From the text: PC-3 human prostate cancer cell-derived aggressive tumors are cachectic depending on the mouse strain used for tumor development. In the following experiment, a cachectic mouse model of human prostate tumor was used.
PC-3 human prostate adenocarcinoma tissue pieces (0.1 cm^3 volume) were implanted subcutaneously into the intrascapular region of 6 weeks old female mice [homozygous line of C.B .-171cr scid/scid] to develop the tumors. The mice were kept at specified pathogen free (SPF) hygienic levels. In the first group of mice (7 mice), no tumors were developed (tumor free control). In the second group of mice (7 mice), tumors were developed but remained untreated. In the third group of mice (7 mice), on days 8, 11, 14, 17, 21 and 25 after transplantation of PC-3 tumors, mice were administered 4 mg/kg of PLAP subcutaneously. The weight and total protein content of m. gastrocnemius (using a protein determination kit from Sigma), tumor weight, lean body weight (total weight minus tumor weight), and the weight of abdominal fat tissue were determined on day 28 (after tumor transplantation).

[6] = Spectrophotometric assay of PLAP enzyme activity; type: biochemical; details: 10 mM 4-nitrophenylphosphate, 22° C., pH 9.8; 1 U = 1 umole substrate hydrolyzed/min
Description: PLAP as determined by sodium dodecyl sulfate-polyacrylamide gel electrophoresis (SDS-PAGE). The enzyme activity of PLAP was assayed using a spectroscopic method to monitor the hydrolysis of 4-nitrophenylphosphate (as an increase in absorbance at 410 nm) at room temperature (22° C.) as described in [Chang, G.-G., Shiao, M.-S., Lec, K.-R. and Wu, J.-J., Modification of human placental alkaline phosphatase by periodate-oxidized 1,N6-ethenoadenosine monophosphate. Biochem. J., 272, 683-690, 1990]. Activity analysis of 5-10-μg purified enzyme was performed in 1 mI. incubation volume containing 50 mM Na2CO3/NaHCO3, 10 mM MgCl2, 10 mM 4-nitrophenylphosphate at pII 9.8. The extinction coefficient of 4-nitrophenol was taken as 1.62×10^4 M^−1 cm^−1. An enzyme activity of I U (unit) is defined as 1 umole substrate hydrolyzed/min at 22° C. at pH 9.8. The pure PLAP was further identified by sequence analysis performed by the Mayo Clinic Protein Core Facility (Rochester, MN, US). The specific activity of purified PLAP was 685 Units per mg protein.

[7] = ATP as substrate of alkaline phosphatases (unpublished data); type: biochemical; details: compared to IALP or TNAP
From the text: This invention can also use an alkaline phosphatase (AP) which is a hybrid derivative of two APs. For example, in such a hybrid one critical segment may originate from PLAP accounting for the heat stability, and another segment may originate from a different AP accounting for a higher catalytic phosphatase activity or another useful property. As an example, envisioned in the disclosure, such hybrid may contain up to roughly 50% of the sequence of PLAP providing stability, and up to roughly 50% of the sequence of another human AP providing the catalytic alkaline phosphatase activity. The rationale for using such hybrid is that of the APs, PLAP has by far the greatest stability in the circulation, while other APs may have greater catalytic activities towards some specific substrates.

[8] = purified PLAP, literature (Clubb et al. 1965); cited from earlier work
[9] = Cyp 120 mg/kg intraperitoneally, PLAP 7.5 mg/kg subcutaneously
[10] = numbers in parentheses, n=7 per group
[11] = m. gastrocnemius, PLAP 4 mg/kg subcutaneously on days 8, 11, 14, 17, 21, 25

In the case of `O.O=P1(N(CCCl)CCCl)NCCCO1` (centres unmarked) [Cyp, 2-[Bis (2-chloroethyl)amino] tetrahydro-2H-1,3,2-oxazaphosphorine 2-oxide monohydrate], the “Tumor volume Day 18” value ([1]; Cyp 120 mg/kg intraperitoneally every second day from day 15, PLAP 7.5 mg/kg subcutaneously every 5 days) is reported as 0.33 ± 0.11 cm^3, the “Tumor volume Day 21” value [1, 9] is reported as 0.56 ± 0.10 cm^3 and the “Tumor volume Day 24” value [1, 9] is reported as 0.72 ± 0.20 cm^3. The “Tumor volume Day 27” value [1, 9] was 0.91 ± 0.22 cm^3, the “Tumor volume Day 31” value [1, 9] was 1.06 ± 0.17 cm^3 and the “Tumor volume Day 35” value [1, 9] was 1.22 ± 0.32 cm^3. The “Tumor volume Day 40” value [1, 9] was 1.68 ± 0.29 cm^3, the “Tumor volume Day 46” value [1, 9] was 1.82 ± 0.24 cm^3 and the “Survival Mean” value ([1]; T47D tumor bearing animals, n=7, monohydrate) was 49 days and 49.3 days. The “body weight less compared to the untreated group” value ([1]; body weight measured on day 46) was 1.4%, the “Tumor volume Day 15” value ([1]; day of first treatment, Cyp 120 mg/kg intraperitoneally, PLAP 7.5 mg/kg subcutaneously) was 0.30 ± 0.11 cm^3 and the “number of mice alive Day 35” value [1, 10] was 7. For the same molecule, the “number of mice alive Day 40” value [1, 10] was 7, the “number of mice alive Day 46” value [1, 10] was 5 and the Survival % ([1]; relative to untreated (None = 100)) was 129%. For the same molecule, the “Total Muscle Protein” value [2] was 11.31 ± 0.43 mg per 100 mg of muscle weight.

For “IGF-1: insulin like growth factor-1 [reference compound]”, the “L6 myoblast proliferation (A540) (minus 0-time value)” value (L6 myoblasts [3]) was 0.280 ± 0.030 A540.

In the case of “Myostatin: myostatin (MSTN) from R&D Systems, catalog no. 788-GB-010 [reference compound]”, the “L6 myoblast proliferation minus 0-time value (A540)” value (L6 myoblasts [4]; Myostatin 0.25 μg/ml, no PLAP, 2% serum) is reported as 0.214 ± 0.032 A540 and the “L6 myoblast proliferation minus 0-time value (A540)” value (L6 myoblasts [4]; Myostatin 1.0 μg/ml, no PLAP, 2% serum) is reported as 0.175 ± 0.030 A540.

B1: PLAP: highly purified native placental alkaline phosphatase derived from human placenta via conventional purification methods (protein, UniProt P05187 23-506, looked up)
Alkaline phosphatase, …: IIPVEEENPDFWNREAAEALGAAKKLQPAQTAAKNLIIFLGDGMGVSTVTAARILKGQKKDKLGPEIPLAMDRFPYVALSKTYNVDKHVPDSGATATAYLCGVKGNFQTIGLSAAARFNQCNTTRGNEVISVMNRAKKAGKSVGVVTTTRVQHASPAGTYAHTVNRNWYSDADVPASARQEGCQDIATQLISNMDIDVILGGGRKYMFRMGTPDPEYPDDYSQGGTRLDGKNLVQEWLAKRQGARYVWNRTELMQASLDPSVTHLMGLFEPGDMKYEIHRDSTLDPSLMEMTEAALRLLSRNPRGFFLFVEGGRIDHGHHESRAYRALTETIMFDDAIERAGQLTSEEDTLSLVTADHSHVFSFGGYPLRGSSIFGLAPGKARDRKAYTVLLYGNGPGYVLKDGARPDVTESESGSPEYRQQSAVPLDEETHAGEDVAVFARGPQAHLVHGVQEQTFIAHVMAFAACLEPYTACDLAPPAGTTD
With B1 the “inhibition of tumor growth” value ([5]; PLAP 4 mg/kg subcutaneously) was 32%, the “loss of lean body weight” value ([5]; PLAP treated tumor (41% in untreated)) was 18% and the “loss of abdominal fat tissue” value ([5]; PLAP treated tumor (46% in untreated)) was 12%. For the same molecule, the “Tumor Weight” value ([5]; PLAP 4 mg/kg subcutaneously) was 2.9 ± 0.4 g, the “Muscle Mass” value [5, 11] was 93 ± 9 mg and the “Muscle Protein” value [5, 11] was 13.3 ± 1.3 mg/100 mg of muscle weight. The “Lean Body Weight” value ([5]; total weight minus tumor weight, PLAP 4 mg/kg subcutaneously) was 25.9 ± 2.8 g, the “Abdominal Fat Tissue” value ([5]; weight, PLAP 4 mg/kg subcutaneously) was 0.66 ± 0.07 g and the “Total Muscle Protein” value [2] was 13.20 ± 0.38 mg per 100 mg of muscle weight. The “L6 myoblast proliferation (A540) (minus 0-time value)” value (L6 myoblasts [3]) was 0.267 ± 0.025 A540, the “L6 myoblast proliferation minus 0-time value (A540)” value (L6 myoblasts [4]; PLAP 25 nM, Myostatin 0.25 μg/ml) was 0.325 ± 0.038 A540 and the “L6 myoblast proliferation minus 0-time value (A540)” value (L6 myoblasts [4]; PLAP 25 nM, Myostatin 1.0 μg/ml) was 0.300 ± 0.023 A540. For the same molecule, the “L6 myoblast proliferation minus 0-time value (A540)” value (L6 myoblasts [4]; PLAP 25 nM, No Myostatin) was 0.410 ± 0.025 A540, the “L6 myoblast proliferation minus 0-time value (A540)” value (L6 myoblasts [4]; PLAP 100 nM, Myostatin 0.25 μg/ml) was 0.430 ± 0.024 A540 and the “L6 myoblast proliferation minus 0-time value (A540)” value (L6 myoblasts [4]; PLAP 100 nM, Myostatin 1.0 μg/ml) was 0.402 ± 0.027 A540. The “L6 myoblast proliferation minus 0-time value (A540)” value (L6 myoblasts [4]; PLAP 100 nM, No Myostatin) was 0.541 ± 0.022 A540, the “L6 myoblast proliferation minus 0-time value (A540)” value (L6 myoblasts [4]; PLAP 200 nM, Myostatin 0.25 μg/ml) was 0.542 ± 0.069 A540 and the “L6 myoblast proliferation minus 0-time value (A540)” value (L6 myoblasts [4]; PLAP 200 nM, Myostatin 1.0 μg/ml) was 0.500 ± 0.033 A540. For the same molecule, the “L6 myoblast proliferation minus 0-time value (A540)” value (L6 myoblasts [4]; PLAP 200 nM, No Myostatin) was 0.707 ± 0.032 A540, the specific activity [6] was 685 Units per mg protein and the ATP as substrate [7] was “weak substrate”. For the same molecule, the “half-life time in human circulation” value [8] was “about 7 days”.
